Legend:
[1] = target: P. aeruginosa RloA2, PA0462 (18–169) (P. aeruginosa); assay: SEC-MALS
[2] = target: P. fluorescens RloA, Pfl01_1762 (20–178) (P. fluorescens); assay: SEC-MALS

| Substance | stoichiometry N [1] | stoichiometry N [2] |
| --- | --- | --- |
| P. aeruginosa RloA2, PA0462 (18–169) (enzyme) | 2 |  |
| P. fluorescens RloA, Pfl01_1762 (20–178) (enzyme) |  | 2 |

From PMC11957051
